PMC12059646, “Functional Characterization of Luciferase in a Brittle Star Indicates Parallel Evolution Influenced by Genomic Availability of Haloalkane Dehalogenase” (Molecular Biology and Evolution, 2025)

Tests used:
[1] = system: T1, AfLuc; assay: luminescence steady-state kinetics, global numerical analysis; type: biochemical, Amphiura filiformis; conditions: 25 nM protein
T1 construct: codon-optimised synthetic gene in pET21b, E. coli BL21, Ni-NTA purified

[2] = substrate: Oc1ccc(Cc2nc3c(Cc4ccccc4)nc(-c4ccc(O)cc4)cn3c2O)cc1; assay: as above; type: biochemical, Renilla reniformis; conditions: 25 nM protein

Molecule	Km [1]	Km [2]	kcat [2]
Oc1ccc(Cc2nc3c(Cc4ccccc4)nc(-c4ccc(O)cc4)cn3c2O)cc1 [coelenterazine]	1.21 ± 0.03 µM	–	–
RLuc (Renilla reniformis) (protein, codon-optimised synthetic gene in pET21b, E. coli BL21, Ni-NTA purified) MTSKVYDPEQRKRMITGPQWWARCKQMNVLDSFINYYDSEKHAENAVIFLHGNAASSYLWRHVVPHIEPVARCIIPDLIGMGKSGKSGNGSYRLLDHYKYLTAWFELLNLPKKIIFVGHDWGACLAFHYSYEHQDKIKAIVHAESVVDVIESWDEWPDIEEDIALIKSEEGEKMVLENNFFVETMLPSKIMRKLEPEEFAAYLEPFKEKGEVRRPTLSWPREIPLVKGGKPDVVQIVRNYNAYLRASDDLPKMFIESDPGFFSNAIVEGAKKFPNTEFVKVKGLHFSQEDAPDEMGKYIKSFVERVLKNEQ	–	0.91 ± 0.05 µM	4.2 ± 0.2 s⁻¹
